Reference: patent US20190315821A1, “COMPOSITIONS COMPRISING HEPCIDIN AND METHODS OF USE THEREOF” (La Jolla Pharmaceutical Company, priority 2018, published 2019)
Where “and” joins values, the source holds several entries; their conditions need not be identical. Equal values may be shown once.

Columns and labels:
[1] = Effect of salt form on aggregate formation; assay type: physicochemical; settings: for native pH of solution: when preparing solutions of hepcidin, before pH adjustment; for aggregation when maleic acid is present: pH 4.2, 1 mg/mL maleic acid, continued aggregation then slowed
Procedure: The trifluoroacetate, chloride and acetate salts of hepcidin were prepared and all three salt forms were formulated in 0.9% saline at pH 4.2. The hepcidin concentration was 20 mg/mL with a maleic acid concentration of either 0 mg/mL or 1 mg/mL. Samples were filtered using a 0.2 μm syringe filter and aliquoted into glass screw cap amber vials. The samples were assessed for stability at 5° C. and 25° C. Over the course of 47 days the samples were evaluated by visual inspection, pH and SEC.

[2] = Thiol content assay of hepcidin-25 batches; assay type: physicochemical; settings: for Average mole thiol/[mole hepcidin]: batches of hepcidin-25 before and after purification, lower quantifiable limit 0.01; for thiol content of sample of FIG. 2: sample used in pH 2.5 / pH 5.6 stability study
Description: In some embodiments, the composition comprises purified hepcidin and is substantially free of thiol (e.g., unreacted, free sulfhydryl-containing cysteines). Thiols can react with the disulfide bridges of hepcidin resulting in disulfide scrambling and potential polymerization of multiple hepcidin molecules to form aggregated hepcidin. Such thiols can come from multiple sources, some of which include thiols left over from synthesis of the hepcidin, incomplete folding of hepcidin and breakage of disulfide bridges within folded hepcidin, improperly folded hepcidin and/or aggregated hepcidin. Thiols may be measured by several methods, which may include a thiol quantification assay kit such as that from Molecular Probes: Thiol and Sulfide Quantification Kit (T-6060). Such a kit uses cysteine as a standard so that thiols are reported as cysteine equivalents. In some such embodiments the thiol content is less than 0.20 mole thiol/mole hepcidin. In some preferred embodiments, the thiol content is less than 0.1 mole thiol/mole hepcidin. In more preferred embodiments, the thiol content is less than 0.05 mole thiol/mole hepcidin. In further preferred embodiments, the thiol content is less than 0.015 mole thiol/mole hepcidin. In the most preferred embodiments, the thiol content is less than 0.01 mole thiol/mole hepcidin.
(§1) In view of the role played by intermolecular disulfide bond formation in aggregate formation, and the contribution of thiol groups to that end, multiple sources of hepcidin-25 were analyzed for thiol using a thiol content assay and evaluated for stability. Commercially available hepcidin was used in these Examples, which while “purified” to contain only hepcidin, contained thiols and aggregates, and thus may be referred to as “unpurified” to distinguish it from the compositions of the invention. […] For the purpose of this experiment the thiol impurity was removed as follows: Thiols were quenched using 1 molar equivalents of […] (NEM). The solution was then purified by tangential flow filtration (TFF) using Millipore Pellicon 2 10 kDa cassettes for aggregate removal and Pall T-Series 1 kDa for ultra-filtration-diafiltration. The starting material was diluted to less than or equal to 0.1 mg/mL prior to processing through the 10 kDa system. The diluent consisted of 15% Acetonitrile/0.05% Trifluoracetic acid (TFA).

[3] = Stability (aggregate formation by SEC) of unpurified and purified hepcidin in 0.9% saline at 40° C.; assay type: physicochemical; settings: for Stability: aggregate formation of the batch; for aggregation at low pH: pH 2.5, 0.9% saline, over 10 days; for aggregate by SEC: pH 5.6, 0.9% saline
Procedure: Aggregation can be measured by several different methods. In some embodiments, aggregation is measured by size exclusion high-performance liquid chromatography (SEC-HPLC). This method allows for the separation and quantification of hepcidin monomer from any aggregates including dimer, trimer and multimers. In other preferred embodiments, aggregation is measured by an isocratic method performed on an HPLC system comprised of a temperature controlled auto-sampler, a binary or quaternary pump, and an ultraviolet detector. For example, in some such embodiments, the mobile phase consists of 0.05% TFA in 50% acetonitrile and water and human hepcidin-25 (SEQ ID NO: 1) is dissolved in of 0.05% TFA to 1 mg/mL concentration. Five microliters of the solution are injected onto a Zenix-C SEC-80 column of 7.8×300 mm in dimension, 80 Å pore size and 3 μm particle size (Sepax Technologies, Newark, Del. 19711). A flow rate of 1 mL/min is used to elute the analyte from the column and deliver to the UV detector set at 214 nm. The entire run time is 13 min. Empower™ chromatography software or equivalent software is used to integrate each chromatography peak and calculate % peak area at each respective retention time.
as §1
The initial unpurified material and the resulting purified material were formulated in 0.9% saline at either pH 2.5 or pH 5.6 and assessed for stability at 40° C. Samples were taken over 10 days and evaluated by SEC.

[4] = Mechanism of aggregate formation: stability studies and DTT reduction, SEC; assay type: physicochemical
Description: Hepcidin contains 8 cysteines, forming 4 disulfide bridges, each with the potential to become unstable under certain conditions. […] Significant work was completed to address this degradation pathway.
Briefly, the effect of potential intermolecular disulfide bonding on aggregation was studied by adding a reducing agent to aggregated material to break all disulfide bonds. Hepcidin-25 with an aggregate content of 35% as measured by SEC was used for this study. An aliquot of this material was treated with 20 mM Dithiothreitol (DTT) and samples were evaluated by SEC.

[5] = Effect of pH 4.2 vs pH 4.8 on aggregate formation; assay type: physicochemical; settings: 9% starting aggregate, thiol removed, 0.9% sodium chloride, 5° C. and 25° C., about 50 days
Procedure: Hepcidin-25, with 9% starting aggregate and purified to remove thiol, was dissolved in 0.9% sodium chloride and adjusted to either pH 4.2 or pH 4.8. Samples were filtered using a 0.2 μm syringe filter and aliquoted into glass screw cap amber vials. Samples were assessed for stability at both 5° C. and 25° C. Samples were taken over about 50 days and evaluated by visual inspection, pH and SEC.

serum iron = settings: cited from earlier work
[6] = Initial formulation stability (oxidation) by RP-HPLC; assay type: physicochemical
Procedure: […] Samples were analyzed by reversed-phase high-performance liquid chromatography (RP-HPLC). […] Samples were evaluated over 4.5 months and analyzed by RP-HPLC. Under all conditions, the rate of oxidation observed was slow.

For hepcidin acetate [acetate salt form], the “relative stability of salt forms” value ([1]; 20 mg/mL, 0.9% saline, pH 4.2, 0 or 1 mg/mL maleic acid, 5° C. and 25° C., 47 days) was “most stable of the three salt forms” and the “native pH of solution” value [1] was “about 5”.
In the case of “Vendor 2, Lot 1: commercially available hepcidin-25 batch, unpurified”, the “Average mole thiol/[mole hepcidin]” value [2] is reported as 0.03 mole thiol/mole hepcidin and the Stability [3] is reported as “Unstable, slower”.
With “Vendor 1, Lot 1 purified: hepcidin-25 lot with thiols quenched with NEM and purified by tangential flow filtration” the “Average mole thiol/[mole hepcidin]” value [2] was <0.01 mole thiol/mole hepcidin, the “thiol content of sample of FIG. 2” value [2] was “no detectable thiol” and the Stability [3] was “Stable, very slow”. For the same substance, the “aggregation at low pH” value ([3]; 40° C.) was “no aggregation” and the “aggregate by SEC” value ([3]; after 10 days at 40° C.) was “about 38%”.
For “Vendor 1, Lot 1: commercially available hepcidin-25 batch containing thiols and aggregates, referred to as unpurified”, the “Average mole thiol/[mole hepcidin]” value [2] was 0.17 mole thiol/mole hepcidin, the “thiol content of sample of FIG. 2” value [2] was 1.7 mole thiol/mole hepcidin and the Stability [3] was “Unstable, rapid”. For the same substance, the “aggregation at low pH” value ([3]; 40° C.) was “aggregates more slowly”, the “aggregate by SEC” value ([3]; 40° C., after 24 hours) was > 95% and the “aggregate by SEC” value ([3]; within time it took to test the material by SEC) was 38%.
In the case of hepcidin trifluoroacetate [TFA], the “aggregation when maleic acid is present” value ([1]; 20 mg/mL) is reported as “initial increase in aggregation”.
With “Vendor 1, Lot 2: commercially available hepcidin-25 batch, unpurified” the “Average mole thiol/[mole hepcidin]” value [2] was >0.2 mole thiol/mole hepcidin and the Stability [3] was “Unstable, rapid”.
In the case of hepcidin-25, the “main mode of degradation” value ([4]; accelerated (40° C.) and real time (5° C.) stability studies) is reported as “aggregation”, the “aggregation after reduction of disulfide bonds” value ([4]; material with 35% aggregate treated with 20 mM DTT) is reported as “aggregation is reversed” and the “effect of pH on stability (aggregate formation)” value [5] is reported as “pH 4.2 being more stable than pH 4.8”. For the same substance, the safety profile (serum iron; nonclinical and clinical studies) was “favorable safety profile”, the “duration of iron lowering effects” value (serum iron; single subcutaneous injection) was “up to 1 week” and the rate of oxidation ([6]; 40 mg/mL in saline with or without methionine, 37° C. and 45° C., 4.5 months, all conditions) was “slow”. The “effect of methionine excipient on oxidation” value ([6]; 40 mg/mL in saline, methionine ten-fold molar excess, 37° C. and 45° C.) was “reduced the amount of oxidation even further” and the “primary degradation products observed” value ([6]; 50, 100 and 150 mg/mL, 5° C. over 4.5 months, RP-HPLC) was “mono or di-oxidation of the methionine at position 21”.
In the case of “Vendor 3, Lot 1: commercially available hepcidin-25 batch, unpurified”, the “Average mole thiol/[mole hepcidin]” value [2] is reported as 0.03 mole thiol/mole hepcidin and the Stability [3] is reported as “Unstable, slower”.
In the case of hepcidin chloride [HCl salt], the “aggregation when maleic acid is present” value ([1]; 20 mg/mL) is reported as “initial increase in aggregation” and the “native pH of solution” value [1] is reported as “about 2.5”.
With “Vendor 2, Lot 2: commercially available hepcidin-25 batch, unpurified; label printed on two lines of Table 2” the “Average mole thiol/[mole hepcidin]” value [2] was 0.03 mole thiol/mole hepcidin and 0.02 mole thiol/mole hepcidin and the Stability [3] was “Unstable, slower”.
